Test results as given in patent US20190276540A1.

How the values were obtained:
[1] = target: ULBP2-Fc (UniProt Q9BZM5); assay: cell-based or functional assay
[2] = target: NKG2D ligands (NKG2DL) on tumor cell lines; assay: cell-based or functional assay

Chain of UniProt Q9BZM5 (Q9BZM5 26-217 limits assumed): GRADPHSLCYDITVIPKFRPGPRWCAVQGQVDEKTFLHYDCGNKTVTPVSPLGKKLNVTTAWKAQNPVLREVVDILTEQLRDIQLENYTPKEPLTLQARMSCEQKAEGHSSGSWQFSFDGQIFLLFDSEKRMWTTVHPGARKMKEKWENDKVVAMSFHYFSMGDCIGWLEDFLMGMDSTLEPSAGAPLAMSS

## dimeric NKG2D-CD3ε TFP (receptor)
[1]
  proliferation of CFSE-labelled TFP T cells on plate-bound antigen, three-day culture, flow cytometry: 60 ng/mL
[2]
  tumor cell lysis, luciferase reporter assay, 24 h co-culture, E:T 1-to-1: 30 to 50%

## monomeric NKG2D-CD3ε TFP (receptor)
[1]
  proliferation of CFSE-labelled TFP T cells on plate-bound antigen, three-day culture, flow cytometry: 250 ng/mL
[2]
  tumor cell lysis, luciferase reporter assay, 24 h co-culture, E:T 5-to-1: 30 to 50%
